The supplement of paper PMC5998384

Experiments:
[1] = tested on: HeLa Kyoto; assay: solubility in G1/S (NP-40 vs SDS abundance) (log2 ratio); higher = more soluble; conditions: cell cycle stage: G1/S
[2] = tested on: HeLa Kyoto; assay: melting temperature (median over replicates), in situ; higher = more thermally stable
[3] = tested on: HeLa Kyoto; assay: solubility change mitosis vs G1/S (difference of NP-40 vs SDS log2 ratios) (log2 ratio difference); higher = more soluble in mitosis
[4] = tested on: HeLa Kyoto; assay: thermal stability score vs G1/S (z-score of summed log2 fold changes over temperatures); higher = more thermally stable than in G1/S
[5] = cell cycle stage: early G1 (4.5 h after nocodazole release)
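Wherever melting temperature (median over replicates), in situ is given: HeLa Kyoto cells synchronized by double thymidine or nocodazole block, proteins quantified by TMT10plex mass spectrometry, three independent biological replicates.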
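Wherever solubility change mitosis vs G1/S (difference of NP-40 vs SDS log2 ratios) is given: synchronized HeLa Kyoto cells (double thymidine block for G1/S, nocodazole release for mitosis), protein amounts in NP-40 versus SDS lysates quantified by mass spectrometry, three biological replicates.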
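Wherever solubility in G1/S (NP-40 vs SDS abundance) is given: HeLa Kyoto cells arrested at G1/S by double thymidine block, proteins quantified by TMT10plex mass spectrometry in mild NP-40 versus SDS extracts, three biological replicates.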
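Wherever thermal stability score vs G1/S (z-score of summed log2 fold changes over temperatures) is given: synchronized HeLa Kyoto cells, proteins quantified by TMT10plex mass spectrometry, three biological replicates, mitosis taken 0.5 h after nocodazole release, G1/S directly after double thymidine block.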

| Sequence | solubility in G1/S (log2) [1] | melting temperature ([2]; cell cycle stage: G1/S) [°C] | melting temperature ([2]; cell cycle stage: mitosis) [°C] | solubility change mitosis (log2) [3] | thermal stability score [4, 5] | thermal stability score ([4]; cell cycle stage: mitosis) |
| --- | --- | --- | --- | --- | --- | --- |
| MSVRVARVAWVRGLGASYRRGASSFPVPPPGAQGVAELLRDATGAEEEAPWAATERRMPGQCSVLLFPGQGSQVVGMGRGLLNYPRVRELYAAARRVLGYDLLELSLHGPQETLDRTVHCQPAIFVASLAAVEKLHHLQPSVIENCVAAAGFSVGEFAALVFAGAMEFAEGLYAVKIRAEAMQEASEAVPSGMLSVLGQPQSKFNFACLEAREHCKSLGIENPVCEVSNYLFPDCRVISGHQEALRFLQKNSSKFHFRRTRMLPVSGAFHTRLMEPAVEPLTQALKAVDIKKPLVSVYSNVHAHRYRHPGHIHKLLAQQLVSPVKWEQTMHAIYERKKGRGFPQTFEVGPGRQLGAILKSCNMQAWKSYSAVDVLQTLEHVDLDPQEPPR [MT] | -0.124 | 59 | 56.6 | -0.162 | -1.31 | -2.45 |
| MSVTYDDSVGVEVSSDSFWEVGNYKRTVKRIDDGHRLCSDLMNCLHERARIEKAYAQQLTEWARRWRQLVEKGPQYGTVEKAWMAFMSEAERVSELHLEVKASLMNDDFEKIKNWQKEAFHKQMMGGFKETKEAEDGFRKAQKPWAKKLKEVEAAKKAHHAACKEEKLAISREANSKADPSLNPEQLKKLQDKIEKCKQDVLKTKEKYEKSLKELDQGTPQYMENMEQVFEQCQQFEEKRLRFFREVLLEVQKHLDLSNVAGYKAIYHDLEQSIRAADAVEDLRWFRANHGPGMAMNWPQFEEWSADLNRTLSRREKKKATDGVTLTGINQTGDQSLPSKPSSTLNVPSNPAQSAQSQSSYNPFEDEDDTGSTVSEKDDTKAKNVSSYEKTQSYPTDWSDDESNNPFSSTDANGDSNPFDDDATSGTEVRVRALYDYEGQEHDELSFKAGDELTKMEDEDEQGWCKGRLDNGQVGLYPANYVEAIQ [PACSIN2] | 0.218 | 49.6 | 49.7 | -0.0385 | 1.11 | 1.7 |
| MSWESGAGPGLGSQGMDLVWSAWYGKCVKGKGSLPLSAHGIVVAWLSRAEWDQVTVYLFCDDHKLQRYALNRITVWRSRSGNELPLAVASTADLIRCKLLDVTGGLGTDELRLLYGMALVRFVNLISERKTKFAKVPLKCLAQEVNIPDWIVDLRHELTHKKMPHINDCRRGCYFVLDWLQKTYWCRQLENSLRETWELEEFREGIEEEDQEEDKNIVVDDITEQKPEPQDDGKSTESDVKADGDSKGSEEVDSHCKKALSHKELYERARELLVSYEEEQFTVLEKFRYLPKAIKAWNNPSPRVECVLAELKGVTCENREAVLDAFLDDGFLVPTFEQLAALQIEYEDGQTEVQRGEGTDPKSHKNVDLNDVLVPKPFSQFWQPLLRGLHSQNFTQALLERMLSELPALGISGIRPTYILRWTVELIVANTKTGRNARRFSAGQWEARRGWRLFNCSASLDWPRMVESCLGSPCWASPQLLRIIFKAMGQGLPDEEQEKLLRICSIYTQSGENSLVQEGSEASPIGKSPYTLDSLYWSVKPASSSFGSEAKAQQQEEQGSVNDVKEEEKEEKEVLPDQVEEEEENDDQEEEEEDEDDEDDEEEDRMEVGPFSTGQESPTAENARLLAQKRGALQGSAWQVSSEDVRWDTFPLGRMPGQTEDPAELMLENYDTMYLLDQPVLEQRLEPSTCKTDTLGLSCGVGSGNCSNSSSSNFEGLLWSQGQLHGLKTGLQLF [LAS1L] | -1.4 | 49.7 | 51 | 0.658 | 1.98 | 2.81 |
| MSWMFKRDPVWKYLQTVQYGVHGNFPRLSYPTFFPRFEFQDVIPPDDFLTSDEEVDSVLFGSLRGHVVGLRYYTGVVNNNEMVALQRDPNNPYDKNAIKVNNVNGNQVGHLKKELAGALAYIMDNKLAQIEGVVPFGANNAFTMPLHMTFWGKEENRKAVSDQLKKHGFKLGPAPKTLGFNLESGWGSGRAGPSYSMPVHAAVQMTTEQLKTEFDKLFEDLKEDDKTHEMEPAEAIETPLLPHQKQALAWMVSRENSKELPPFWEQRNDLYYNTITNFSEKDRPENVHGGILADDMGLGKTLTAIAVILTNFHDGRPLPIERVKKNLLKKEYNVNDDSMKLGGNNTSEKADGLSKDASRCSEQPSISDIKEKSKFRMSELSSSRPKRRKTAVQYIESSDSEEIETSELPQKMKGKLKNVQSETKGRAKAGSSKVIEDVAFACALTSSVPTTKKKMLKKGACAVEGSKKTDVEERPRTTLIICPLSVLSNWIDQFGQHIKSDVHLNFYVYYGPDRIREPALLSKQDIVLTTYNILTHDYGTKGDSPLHSIRWLRVILDEGHAIRNPNAQQTKAVLDLESERRWVLTGTPIQNSLKDLWSLLSFLKLKPFIDREWWHRTIQRPVTMGDEGGLRRLQSLIKNITLRRTKTSKIKGKPVLELPERKVFIQHITLSDEERKIYQSVKNEGRATIGRYFNEGTVLAHYADVLGLLLRLRQICCHTYLLTNAVSSNGPSGNDTPEELRKKLIRKMKLILSSGSDEECAICLDSLTVPVITHCAHVFCKPCICQVIQNEQPHAKCPLCRNDIHEDNLLECPPEELARDSEKKSDMEWTSSSKINALMHALTDLRKKNPNIKSLVVSQFTTFLSLIEIPLKASGFVFTRLDGSMAQKKRVESIQCFQNTEAGSPTIMLLSLKAGGVGLNLSAASRVFLMDPAWNPAAEDQCFDRCHRLGQKQEVIITKFIVKDSVEENMLKIQNKKRELAAGAFGTKKPNADEMKQAKINEIRTLIDL [HLTF] | -0.124 | 48.9 | 50.2 | -0.0719 | 2.36 | 4.68 |
| MSWSPSLTTQTCGAWEMKERLGTGGFGNVIRWHNQETGEQIAIKQCRQELSPRNRERWCLEIQIMRRLTHPNVVAARDVPEGMQNLAPNDLPLLAMEYCQGGDLRKYLNQFENCCGLREGAILTLLSDIASALRYLHENRIIHRDLKPENIVLQQGEQRLIHKIIDLGYAKELDQGSLCTSFVGTLQYLAPELLEQQKYTVTVDYWSFGTLAFECITGFRPFLPNWQPVQWHSKVRQKSEVDIVVSEDLNGTVKFSSSLPYPNNLNSVLAERLEKWLQLMLMWHPRQRGTDPTYGPNGCFKALDDILNLKLVHILNMVTGTIHTYPVTEDESLQSLKARIQQDTGIPEEDQELLQEAGLALIPDKPATQCISDGKLNEGHTLDMDLVFLFDNSKITYETQISPRPQPESVSCILQEPKRNLAFFQLRKVWGQVWHSIQTLKEDCNRLQQGQRAAMMNLLRNNSCLSKMKNSMASMSQQLKAKLDFFKTSIQIDLEKYSEQTEFGITSDKLLLAWREMEQAVELCGRENEVKLLVERMMALQTDIVDLQRSPMGRKQGGTLDDLEEQARELYRRLREKPRDQRTEGDSQEMVRLLLQAIQSFEKKVRVIYTQLSKTVVCKQKALELLPKVEEVVSLMNEDEKTVVRLQEKRQKELWNLLKIACSKVRGPVSGSPDSMNASRLSQPGQLMSQPSTASNSLPEPAKKSEELVAEAHNLCTLLENAIQDTVREQDQSFTALDWSWLQTEEEEHSCLEQAS [IKBKB] | 0.0875 | 48.3 | 49.2 | -0.171 | 1.13 | 2.17 |
| MSYTPGVGGDPAQLAQRISSNIQKITQCSVEIQRTLNQLGTPQDSPELRQQLQQKQQYTNQLAKETDKYIKEFGSLPTTPSEQRQRKIQKDRLVAEFTTSLTNFQKVQRQAAEREKEFVARVRASSRVSGSFPEDSSKERNLVSWESQTQPQVQVQDEEITEDDLRLIHERESSIRQLEADIMDINEIFKDLGMMIHEQGDVIDSIEANVENAEVHVQQANQQLSRAADYQRKSRKTLCIIILILVIGVAIISLIIWGLNH [STX7] | 0.637 | 54.1 | 55 | 0.264 | -1.45 | -2.01 |
| MTANRLAESLLALSQQEELADLPKDYLLSESEDEGDNDGERKHQKLLEAISSLDGKNRRKLAERSEASLKVSEFNVSSEGSGEKLVLADLLEPVKTSSSLATVKKQLSRVKSKKTVELPLNKEEIERIHREVAFNKTAQVLSKWDPVVLKNRQAEQLVFPLEKEEPAIAPIEHVLSGWKARTPLEQEIFNLLHKNKQPVTDPLLTPVEKASLRAMSLEEAKMRRAELQRARALQSYYEAKARREKKIKSKKYHKVVKKGKAKKALKEFEQLRKVNPAAALEELEKIEKARMMERMSLKHQNSGKWAKSKAIMAKYDLEARQAMQEQLSKNKELTQKLQVASESEEEEGGTEDVEELLVPDVVNEVQMNADGPNPWMLRSCTSDTKEAATQEDPEQLPELEAHGVSESEGEERPVAEEEILLREFEERRSLRKRSELSQDAEPAGSQETKDSGSQEVLSELRVLSQKLKENHQSRKQKASSEGTIPQVQREEPAPEEEEPLLLQRPERVQTLEELEELGKEECFQNKELPRPVLEGQQSERTPNNRPDAPKEKKKKEQMIDLQNLLTTQSPSVKSLAVPTIEELEDEEERNHRQMIKEAFAGDDVIRDFLKEKREAVEASKPKDVDLTLPGWGEWGGVGLKPSAKKRRRFLIKAPEGPPRKDKNLPNVIINEKRNIHAAAHQVRVLPYPFTHHWQFERTIQTPIGSTWNTQRAFQKLTTPKVVTKPGHIINPIKAEDVGYRSSSRSDLSVIQRNPKRITTRHKKQLKKCSVD [UTP14A] | -1.64 | 53 | 52.8 | 0.895 | -4.25 | -2.2 |
| MTAPCPPPPPDPQFVLRGTQSPVHALHFCEGAQAQGRPLLFSGSQSGLVHIWSLQTRRAVTTLDGHGGQCVTWLQTLPQGRQLLSQGRDLKLCLWDLAEGRSAVVDSVCLESVGFCRSSILAGGQPRWTLAVPGRGSDEVQILEMPSKTSVCALKPKADAKLGMPMCLRLWQADCSSRPLLLAGYEDGSVVLWDVSEQKVCSRIACHEEPVMDLDFDSQKARGISGSAGKALAVWSLDWQQALQVRGTHELTNPGIAEVTIRPDRKILATAGWDHRIRVFHWRTMQPLAVLAFHSAAVQCVAFTADGLLAAGSKDQRISLWSLYPRA [GNB1L] | 0.0814 | 54.6 | 54.2 | -0.205 | -0.681 | -0.0471 |
| MTATVENLTFQKDTLGNAVDKNTSRLELRSYSLAGRHGSTEPLVLAWSSQFRRLTWGCALDALHRSPCVAASQHGVTHLIRSSRTPHSTRCRKEDAQPGHHGNGAASVTAQARGQRSVLQVPLPVPRSCLFSESFVVSVSSQSRFLASVPGTGVQRSTAADMAASTAAGKQRIPKVAKVKNKAPAEVQITAEQLLREAKERELELLPPPPQQKITDEEELNDYKLRKRKTFEDNIRKNRTVISNWIKYAQWEESLKEIQRARSIYERALDVDYRNITLWLKYAEMEMKNRQVNHARNIWDRAITTLPRVNQFWYKYTYMEEMLGNVAGARQVFERWMEWQPEEQAWHSYINFELRYKEVDRARTIYERFVLVHPDVKNWIKYARFEEKHAYFAHARKVYERAVEFFGDEHMDEHLYVAFAKFEENQKEFERVRVIYKYALDRISKQDAQELFKNYTIFEKKFGDRRGIEDIIVSKRRFQYEEEVKANPHNYDAWFDYLRLVESDAEAEAVREVYERAIANVPPIQEKRHWKRYIYLWINYALYEELEAKDPERTRQVYQASLELIPHKKFTFAKMWILYAQFEIRQKNLSLARRALGTSIGKCPKNKLFKVYIELELQLREFDRCRKLYEKFLEFGPENCTSWIKFAELETILGDIDRARAIYELAISQPRLDMPEVLWKSYIDFEIEQEETERTRNLYRRLLQRTQHVKVWISFAQFELSSGKEGSLTKCRQIYEEANKTMRNCEEKEERLMLLESWRSFEEEFGTASDKERVDKLMPEKVKKRRKVQTDDGSDAGWEEYFDYIFPEDAANQPNLKLLAMAKLWKKQQQEKEDAEHHPDEDVDESES [CRNKL1] | -0.64 | 47.4 | 48 | 0.252 | 1.73 | 2.31 |
| MTCWLRGVTATFGRPAEWPGYLSHLCGRSAAMDLGPMRKSYRGDREAFEETHLTSLDPVKQFAAWFEEAVQCPDIGEANAMCLATCTRDGKPSARMLLLKGFGKDGFRFFTNFESRKGKELDSNPFASLVFYWEPLNRQVRVEGPVKKLPEEEAECYFHSRPKSSQIGAVVSHQSSVIPDREYLRKKNEELEQLYQDQEVPKPKSWGGYVLYPQVMEFWQGQTNRLHDRIVFRRGLPTGDSPLGPMTHRGEEDWLYERLAP [PNPO] | 0.682 | 53.5 | 54.3 | -0.0358 | -1.68 | -1.82 |
